Measurements taken from paper PMC7885266 (Chemical Science, 2020).
Where “and” joins values, the source holds several entries; their conditions need not be identical. Equal values may be shown once.

B2: Tankyrase-2 Ankyrin Repeat Cluster 4 (residues 488-649) (domain or fragment, human, UniProt Q9H2K2 488-649, looked up)
chain: GNSEADRQLLEAAKAGDVETVKKLCTVQSVNCRDIEGRQSTPLHFAAGYNRVSVVEYLLQHGADVHAKDKGGLVPLHNACSYGHYEVAELLVKHGAVVNVADLWKFTPLHEAAAKGKYEICKLLLQHGADPTKKNRDGNTPLDLVKDGDTDIQDLLRGDAAL
notes: human tankyrase 2, fourth ankyrin-repeat cluster (ARC4), residues 488-649; also called hTNKS2 ARC4; TNKS2 ARC4; source: E. coli, purified (IMAC, SEC; His tag removed with thrombin)
B3: 2TBP-CTPR4 (designed binder)
chain: AEAWYNLGNAYYKQGDYQKAIEYYQKALELDPNNREAGDGEEDPRSAEAWYNLGNAYYKQGDYQKAIEYYQKALELDPRSAEAWYNLGNAYYKQGDYQKAIEYYQKALELDPNNREAGDGEEDPRSAEAWYNLGNAYYKQGDYQKAIEYYQKALELDPRS
B4: 4TBP-CTPR8 (designed binder)
chain: AEAWYNLGNAYYKQGDYQKAIEYYQKALELDPNNREAGDGEEDPRSAEAWYNLGNAYYKQGDYQKAIEYYQKALELDPRSAEAWYNLGNAYYKQGDYQKAIEYYQKALELDPNNREAGDGEEDPRSAEAWYNLGNAYYKQGDYQKAIEYYQKALELDPRSAEAWYNLGNAYYKQGDYQKAIEYYQKALELDPNNREAGDGEEDPRSAEAWYNLGNAYYKQGDYQKAIEYYQKALELDPRSAEAWYNLGNAYYKQGDYQKAIEYYQKALELDPNNREAGDGEEDPRSAEAWYNLGNAYYKQGDYQKAIEYYQKALELDPRS
B5: 1TBP-CTPR2 (designed binder)
chain: AEAWYNLGNAYYKQGDYQKAIEYYQKALELDPNNREAGDGEEDPRSAEAWYNLGNAYYKQGDYQKAIEYYQKALELDPRS

What was measured:
Settings in all cases: both partners purified
3TBP-CTPR6 [1] = target: T1, 3TBP-CTPR6; assay: co-sedimentation; co-precipitation assay: 10 μM hTNKS2 ARC1–3 mixed with an equal volume of CTPR protein (fixed or increasing concentrations) in 50 mM Tris-HCl, 150 mM NaCl, 0.5 mM TCEP, pH 7.3; 1 h at room temperature, 20 000g 30 min; supernatant and pellet on SDS-PAGE, band densities give the stoichiometry in the pellet
T1 chain: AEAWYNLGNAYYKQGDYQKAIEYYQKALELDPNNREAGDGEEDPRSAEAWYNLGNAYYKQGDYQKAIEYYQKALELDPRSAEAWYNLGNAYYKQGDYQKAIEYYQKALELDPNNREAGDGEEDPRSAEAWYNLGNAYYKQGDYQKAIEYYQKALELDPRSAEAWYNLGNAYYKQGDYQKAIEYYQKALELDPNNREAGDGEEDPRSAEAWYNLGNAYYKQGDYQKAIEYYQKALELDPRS

2TBP-CTPR4 = target: B3; assay: ITC; TNKS2 ARC4 (500 μM) titrated into the cell holding one nTBP-CTPR2n construct (50, 25, 16.6 or 12.5 μM); 25 °C; 10 mM sodium phosphate, 150 mM NaCl, 0.5 mM TCEP, pH 7.4; OneSite model
3TBP-CTPR6 [2] = target: T1, 3TBP-CTPR6; assay: as above
4TBP-CTPR8 = target: B4; assay: as above
1TBP-CTPR2 = target: B5; assay: as above
[3] = target: B2; assay: as above

B1: Tankyrase-2 Ankyrin Repeat Clusters 1-3 (residues 2-485) (domain or fragment, human, UniProt Q9H2K2 2-485, looked up)
chain: SGRRCAGGGAACASAAAEAVEPAARELFEACRNGDVERVKRLVTPEKVNSRDTAGRKSTPLHFAAGFGRKDVVEYLLQNGANVQARDDGGLIPLHNACSFGHAEVVNLLLRHGADPNARDNWNYTPLHEAAIKGKIDVCIVLLQHGAEPTIRNTDGRTALDLADPSAKAVLTGEYKKDELLESARSGNEEKMMALLTPLNVNCHASDGRKSTPLHLAAGYNRVKIVQLLLQHGADVHAKDKGDLVPLHNACSYGHYEVTELLVKHGACVNAMDLWQFTPLHEAASKNRVEVCSLLLSYGADPTLLNCHNKSAIDLAPTPQLKERLAYEFKGHSLLQAAREADVTRIKKHLSLEMVNFKHPQTHETALHCAAASPYPKRKQICELLLRKGANINEKTKEFLTPLHVASEKAHNDVVEVVVKHEAKVNALDNLGQTSLHRAAYCGHLQTCRLLLSYGCDPNIISLQGFTALQMGNENVQQLLQEGI
notes: human tankyrase 2, ankyrin-repeat clusters 1-3, residues 2-485; also called hTNKS2 ARC1–3; source: E. coli, purified (IMAC, SEC; His tag removed with thrombin)
3TBP-CTPR6 [1]
  stoichiometry N: 1

## B2
2TBP-CTPR4
  stoichiometry N: 2.18 and 2.05
3TBP-CTPR6 [2]
  stoichiometry N: 2.77 and 2.72
4TBP-CTPR8
  stoichiometry N: 3.38 and 2.91
1TBP-CTPR2
  stoichiometry N: 1.01 and 0.9

## B3
[3]
  Kd: 11.9 µM and 18.6 µM

## B4
[3]
  Kd: 13.6 µM and 15.5 µM

## B5
[3]
  Kd: 14.7 µM and 12.8 µM
